In patent US20110008356A1:

Target: Human IL-17RC:Fc (human) (UniProt Q8NAC3)
Experiment: SPR (BIAcore 3000), receptor:Fc captured by anti-human Fc, cytokine as analyte, koff/kon, 1:1 Langmuir fit

Chain of Human IL-17A (Q16552 20-155 limits assumed): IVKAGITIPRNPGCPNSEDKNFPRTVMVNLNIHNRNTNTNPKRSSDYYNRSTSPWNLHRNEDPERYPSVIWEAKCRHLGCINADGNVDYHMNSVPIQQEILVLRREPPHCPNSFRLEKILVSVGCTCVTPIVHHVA

Kd	Substance
0.05 nM	Human IL-17A (from UniProt Q16552 20-155) (ligand)
0.03 nM	Mouse IL-17F (from UniProt Q7TNI7 29-161) (ligand)
